Measured values published in US7604932B2, “Assay for tissue factor in a sample” (Haematologic Technologies, Inc., priority 2002, dated 2009).

Experiments:
factor VIIa = factor VIIa (Homo sapiens, UniProt P08709); test: Fluorogenic TF cofactor activity assay with excess factor VIIa and D-FPR-(n-butyl)ANSN, read against the units/ml standard curve (FIG. 3); format: biochemical
Experimental: A standardized preparation of recombinant human TF with a cofactor activity of 241 units/ml (specific activity of 3906 units/milligram) was serially diluted to create stock assay standards in the range of 8 to 0.25 units/ml. One hundred microliters of each stock standard was combined with 50 microliters of 120 nM factor VIIa. Subsequently 50 microliters of 150 uM D-FPR-(n-butyl)ANSN was added and the rate of substrate hydrolysis was measured in a fluorometer at an excitation wavelength of 350 nm and an emission wavelength of 470 nm. A standard curve was generated in FIG. 3 by plotting the change in fluorescent intensity over time versus the concentration of TF (in units/ml). In a similar manner, a sample of TF (0.8 mg/ml) with an unknown amount of cofactor activity was assayed for comparison to the standard. After correcting for assay dilution, the unknown sample returned an assay value of 2803 units per milliliter, and thus a specific activity of 3504 units per milligram. Consequently, this allows for comparison of different preparations of TF using their specific activity, which is a direct indication of quality and functionality.

fVIIa = fVIIa (Homo sapiens, UniProt P08709); test: Fluorogenic TF assay of relipidated TF with 2 nM fVIIa and D-FPR-(n-butyl)ANSN, compared to the FIG. 2 calibration curve; format: biochemical; conditions: 250 pM TF to 500 nM PCPS (75% PC, 25% PS); 2 nM fVIIa; 2 mM CaCl2, pH 7.4; 50 μM D-FPR-(n-butyl)ANSN
Experimental: Concentrations of TF were varied (0-500 pM) and incubated with 2 nM fVIIa in HBS pH 7.4, containing 2 mM Calcium Chloride (CaCl2), for 10 minutes at room temperature. Next, 50 μM D-FPR-(n-butyl)ANSN was added. Substrate hydrolysis was then monitored continuously for five minutes in a fluorometer at an excitation wavelength of 350 nm and an emission wavelength of 470 nm. The rates of substrate hydrolysis were determined for each TF concentration tested. The rate of hydrolysis by 2 nM fVIIa alone was measured and subtracted from the rates observed in the presence of TF. FIG. 2 is a graph of a calibration line based on these rates of hydrolysis at various TF concentrations.
In this example the preparation for TF employed in Example 3 was relipidated into phospholipid (PCPS) vesicles, composed of 75% phosphatidylcholine (PC) and 25% phosphatidylserine (PS). Relipidated TF, 250 pM TF to 500 nM PCPS, was incubated with 2 nM fVIIa in HBS, 2 mM CaCl2 pH 7.4 for ten minutes at room temperature. Next, 50 μM D-FPR-(n-butyl)ANSN was added. Rates of hydrolysis were determined and the rate of hydrolysis by 2 nM fVIIa alone was measured and subtracted from the rates observed in the presence of TF. The net rate of hydrolysis was then compared to the FIG. 2 calibration curve.

[1] = standardized preparation used as assay standard

Sequence of factor VIIa (P08709 61-212 limits assumed): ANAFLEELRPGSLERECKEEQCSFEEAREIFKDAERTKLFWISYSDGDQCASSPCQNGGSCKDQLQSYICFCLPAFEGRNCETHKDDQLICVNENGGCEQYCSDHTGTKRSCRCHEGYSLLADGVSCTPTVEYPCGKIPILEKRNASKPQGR
Sequence of factor VIIa (P08709 213-466 limits assumed): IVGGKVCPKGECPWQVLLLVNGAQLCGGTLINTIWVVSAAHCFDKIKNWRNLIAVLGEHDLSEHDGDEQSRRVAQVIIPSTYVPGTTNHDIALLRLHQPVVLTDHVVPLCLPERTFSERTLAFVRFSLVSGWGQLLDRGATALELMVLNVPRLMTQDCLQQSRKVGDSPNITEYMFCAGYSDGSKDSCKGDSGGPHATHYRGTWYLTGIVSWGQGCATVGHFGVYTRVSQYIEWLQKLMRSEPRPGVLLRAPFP
Sequence of factor VIIa (P13726 33-295 partner): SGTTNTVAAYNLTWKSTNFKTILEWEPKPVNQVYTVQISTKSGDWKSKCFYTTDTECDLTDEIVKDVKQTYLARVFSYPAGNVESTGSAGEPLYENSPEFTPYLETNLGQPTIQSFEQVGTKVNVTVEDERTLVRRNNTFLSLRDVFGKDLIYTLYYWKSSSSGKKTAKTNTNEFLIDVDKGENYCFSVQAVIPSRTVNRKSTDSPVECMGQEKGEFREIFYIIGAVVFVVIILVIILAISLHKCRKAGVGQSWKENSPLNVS
Sequence of fVIIa (P08709 61-212 limits assumed): as the sequence (P08709 61-212 limits assumed) above
Sequence of fVIIa (P08709 213-466 limits assumed): as the sequence (P08709 213-466 limits assumed) above
Sequence of fVIIa (P13726 33-295 partner): as the sequence (P13726 33-295 partner) above

In the case of “sample of TF: sample of tissue factor (0.8 mg/ml) with an unknown amount of cofactor activity”, the specific activity (factor VIIa; TF sample 0.8 mg/ml) is reported as 3504 units per milligram and the “cofactor activity, assay value after correcting for assay dilution” value (factor VIIa; TF sample 0.8 mg/ml, 120 nM factor VIIa stock, 150 uM D-FPR-(n-butyl)ANSN stock) is reported as 2803 units per milliliter.

“recombinant human TF: standardized preparation of recombinant human tissue factor used as assay standard” was tested, and the cofactor activity (factor VIIa; [1]) was 241 units/ml and the specific activity (factor VIIa; [1]) was 3906 units/milligram.

For “Relipidated TF: TF preparation of Example 3 relipidated into PCPS vesicles (75% phosphatidylcholine, 25% phosphatidylserine)”, the “TF added to the relipidation mixture expressed as functional TF” value (fVIIa) was 35-40%.
